For assay [1], the target named is T1, TcdB1 holotoxin (recombinant full-length TcdB1, VPI10463 strain, expressed in Bacillus megaterium) (Clostridium difficile, VPI10463 strain, UniProt P18177 1-2366).
Assay [2] addresses TcdB2 (recombinant full-length, R20292 strain [sic], expressed in Bacillus megaterium) (Clostridium difficile, R20291 strain …, UniProt P18177 1-2366).
For assay [3], the target named is T1, TcdB1 holotoxin (recombinant …). Briefly: two-step pull-down, first step (FIG. 15C).

B1: Repeat1-Fc (CSPG4 Repeat1, residues 410-551, fused to the N-terminus of the Fc fragment of a human IgG1) (Fc fusion)
chain: ELPEPCVPEPGLPPVFANFTQLLTISPLVVAEGGTAWLEWRHVQPTLDLMEAELRKSQVLFSVTRGARHGELELDIPGAQARKMFTLLDVVNRKARFIHDGSEDTSDQLVLEVSVTARVPMPSCLRRGQTYLLPIQVNPVND
For the molecule B1, in assay [1], the dissociation constant (Kd) was roughly 15.2 nM, the dissociation rate constant (koff) is roughly 0.000108 s⁻¹ and the kon is roughly 7060 M⁻¹ s⁻¹. In addition, in assay [2], the dissociation constant Kd is roughly 5.4 nM, the koff is roughly 4.63e-05 s⁻¹ and the kon was roughly 8340 M⁻¹ s⁻¹.

B2: CSPG4^mini (CSPG4 residues 30-764) (receptor)
chain: ASFFGENHLEVPVATALTDIDLQLQFSTSQPEALLLLAAGPADHLLLQLYSGRLQVRLVLGQEELRLQTPAETLLSDSIPHTVVLTVVEGWATLSVDGFLNASSAVPGAPLEVPYGLFVGGTGTLGLPYLRGTSRPLRGCLHAATLNGRSLLRPLTPDVHEGCAEEFSASDDVALGFSGPHSLAAFPAWGTQDEGTLEFTLTTQSRQAPLAFQAGGRRGDFIYVDIFEGHLRAVVEKGQGTVLLHNSVPVADGQPHEVSVHINAHRLEISVDQYPTHTSNRGVLSYLEPRGSLLLGGLDAEASRHLQEHRLGLTPEATNASLLGCMEDLSVNGQRRGLREALLTRNMAAGCRLEEEEYEDDAYGHYEAFSTLAPEAWPAMELPEPCVPEPGLPPVFANFTQLLTISPLVVAEGGTAWLEWRHVQPTLDLMEAELRKSQVLFSVTRGARHGELELDIPGAQARKMFTLLDVVNRKARFIHDGSEDTSDQLVLEVSVTARVPMPSCLRRGQTYLLPIQVNPVNDPPHIIFPHGSLMVILEHTQKPLGPEVFQAYDPDSACEGLTFQVLGTSSGLPVERRDQPGEPATEFSCRELEAGSLVYVHRGGPAQDLTFRVSDGLQASPPATLKVVAIRPAIQIHRSTGLRLAQGSAMPILPANLSVETNAVGQDVSVLFRVTGALQFGELQKQGAGGVEGAEWWATQAFHQRDVEQGRVRYLSTDPQHHAYDTVENLALEVQ
In the case of B2, in assay [3], the binding result is given as “binds”.

The term Kd denotes the free concentration of one partner at which half of the binding sites on the other are occupied at equilibrium, for simple one-to-one binding. By koff is commonly meant the first-order rate constant of dissociation. A word on the kon: it is the second-order rate constant of association.

(Values after patent US20240033354A1 (University of California, published 2024).)
